From IntAct's records for PubMed 29039417

B1: Protein PTHB1 (Homo sapiens), Q3SYG4 (parent)
chain: MSLFKARDWWSTILGDKEEFDQGCLCLANVDNSGNGQDKIIVGSFMGYLRIFSPHPAKTGDGAQAEDLLLEVDLRDPVLQVEVGKFVSGTEMLHLAVLHSRKLCVYSVSGTLGNVEHGNQCQMKLMYEHNLQRTACNMTYGSFGGVKGRDLICIQSMDGMLMVFEQESYAFGRFLPGFLLPGPLAYSSRTDSFLTVSSCQQVESYKYQVLAFATDADKRQETEQQKLGSGKRLVVDWTLNIGEQALDICIVSFNQSASSVFVLGERNFFCLKDNGQIRFMKKLDWSPSCFLPYCSVSEGTINTLIGNHNNMLHIYQDVTLKWATQLPHIPVAVRVGCLHDLKGVIVTLSDDGHLQCSYLGTDPSLFQAPNVQSRELNYDELDVEMKELQKIIKDVNKSQGVWPMTEREDDLNVSVVVSPNFDSVSQATDVEVGTDLVPSVTVKVTLQNRVILQKAKLSVYVQPPLELTCDQFTFEFMTPDLTRTVSFSVYLKRSYTPSELEGNAVVSYSRPTDRNPDGIPRVIQCKFRLPLKLICLPGQPSKTASHKITIDTNKSPVSLLSLFPGFASQSDDDQVNVMGFHFLGGARITVLASKTSQRYRIQSEQFEDLWLITNELILRLQEYFEKQGVKDFACSFSGSIPLQEYFELIDHHFELRINGEKLEELLSERAVQFRAIQRRLLARFKDKTPAPLQHLDTLLDGTYKQVIALADAVEENQGNLFQSFTRLKSATHLVILLIALWQKLSADQVAILEAAFLPLQEDTQELGWEETVDAAISHLLKTCLSKSSKEQALNLNSQLNIPKDTSQLKKHITLLCDRLSKGGRLCLSTDAAAPQTMVMPGGCTTIPESDLEERSVEQDSTELFTNHRHLTAETPRPEVSPLQGVSE
partner: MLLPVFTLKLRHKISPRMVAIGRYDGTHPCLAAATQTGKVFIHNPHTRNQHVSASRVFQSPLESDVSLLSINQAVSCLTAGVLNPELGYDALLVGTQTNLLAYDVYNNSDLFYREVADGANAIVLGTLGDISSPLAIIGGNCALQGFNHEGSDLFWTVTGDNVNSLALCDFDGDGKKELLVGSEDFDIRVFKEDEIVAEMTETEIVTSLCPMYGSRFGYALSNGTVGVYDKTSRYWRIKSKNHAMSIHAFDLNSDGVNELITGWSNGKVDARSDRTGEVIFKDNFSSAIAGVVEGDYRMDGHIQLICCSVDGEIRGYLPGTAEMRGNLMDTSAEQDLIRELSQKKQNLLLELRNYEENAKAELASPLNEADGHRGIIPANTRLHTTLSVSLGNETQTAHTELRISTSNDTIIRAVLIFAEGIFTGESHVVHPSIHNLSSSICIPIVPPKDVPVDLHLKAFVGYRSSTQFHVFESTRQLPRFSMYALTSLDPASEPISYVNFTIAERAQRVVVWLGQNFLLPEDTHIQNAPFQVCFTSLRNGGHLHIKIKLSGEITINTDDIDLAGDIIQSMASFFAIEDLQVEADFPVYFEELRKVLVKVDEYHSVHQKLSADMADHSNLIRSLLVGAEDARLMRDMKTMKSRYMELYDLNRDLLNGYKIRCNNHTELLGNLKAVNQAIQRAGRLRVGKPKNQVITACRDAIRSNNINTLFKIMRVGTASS

Variants of: B1
Details: with bbs2_human BBS2, Q9BXC9

Variant	effect of a mutation on the interaction
I776K	with no effect
I776E	with no effect
I776A	with no effect
G767K	with no effect
G767A	with no effect
G767E	with no effect
E753K	with no effect
E753A	with no effect
F756K	with no effect
F756A	with no effect
F756E	with no effect
A730E	with no effect
A730K	with no effect
I735K	with no effect
I735A	with no effect
I735E	with no effect
A754K	with no effect
A754E	with no effect
V772E	with no effect
V772K	with no effect
V772A	disrupting interaction strength
D762K	with no effect
D762E	with no effect
D762A	with no effect
L780A	with no effect
L780K	with no effect

Variant	effect of a mutation on the interaction
L780E	with no effect
A774K	with no effect
A774E	with no effect
L737A	with no effect
L737K	with no effect
L737E	with no effect
T782K	with no effect
T782A	with no effect
T782E	with no effect
T725A	with no effect
T725E	with no effect
T725K	with no effect
L733A	with no effect
L733E	with no effect
L733K	with no effect
A775K	with no effect
A775E	with no effect
A775T	disrupting interaction strength
W741L	disrupting interaction strength
W741R	disrupting interaction strength
W741G	disrupting interaction strength
W741A	disrupting interaction strength
W741E	with no effect
W741S	disrupting interaction strength
W741K	with no effect
S785K	with no effect

Variant	effect of a mutation on the interaction
S785E	with no effect
S785A	disrupting interaction strength
K786A	with no effect
K786E	with no effect
L744A	with no effect
L744E	with no effect
L744F	disrupting interaction strength
L744K	with no effect
T771K	with no effect
T771A	with no effect
T771E	with no effect
H732K	with no effect
H732E	with no effect
H732A	with no effect
Q748A	with no effect
Q748L	disrupting interaction strength
Q748K	disrupting interaction strength
Q748E	with no effect
D773E	with no effect
D773K	with no effect
D773A	with no effect
L752K	with no effect
L752A	with no effect
L752E	with no effect
R726K	with no effect
R726E	with no effect

Variant	effect of a mutation on the interaction
R726A	with no effect
L736A	with no effect
L736E	with no effect
L736K	with no effect
K781A	with no effect
K781E	with no effect
L727A	with no effect
L727E	with no effect
L727K	with no effect
L766A	with no effect
L766K	with no effect
L766E	with no effect
Q760K	with no effect
Q760A	with no effect
Q760E	with no effect
L779E	with no effect
L779K	with no effect
L779A	with no effect
F724K	with no effect
F724E	with no effect
H778A	with no effect
H778K	with no effect
H778E	with no effect
A746K	with no effect
A746E	with no effect
A750E	with no effect

Variant	effect of a mutation on the interaction
A750K	with no effect
I751K	with no effect
I751A	with no effect
I751E	with no effect
L784A	with no effect
L784E	with no effect
L784K	with no effect
P758E	with no effect
P758K	with no effect
P758A	with no effect
V734A	with no effect
V734K	with no effect
V734E	with no effect
E770K	with no effect
E770A	with no effect
W768A	with no effect
W768E	with no effect
W768K	with no effect
T763K	with no effect
T763E	with no effect
T763A	with no effect
Q764E	with no effect
Q764K	with no effect
Q764A	with no effect
C783E	with no effect
C783A	with no effect

Variant	effect of a mutation on the interaction
C783K	with no effect
L757A	with no effect
L757E	with no effect
L757K	with no effect
D747K	with no effect
D747E	with no effect
D747A	with no effect
T731K	with no effect
T731A	with no effect
T731E	with no effect
E761A	with no effect
E761K	with no effect
A739E	with no effect
A739K	with no effect
S745K	with no effect
S745E	with no effect
S745A	with no effect
E765K	with no effect
E765A	with no effect
Q742S	disrupting interaction strength
Q742A	with no effect
Q742K	with no effect
Q742L	disrupting interaction strength
Q742E	with no effect
E769A	with no effect
E769K	with no effect

Variant	effect of a mutation on the interaction
I738E	with no effect
I738A	with no effect
I738K	with no effect
K743A	with no effect
K743E	with no effect
V749K	with no effect
V749A	with no effect
V749E	with no effect
L759A	with no effect
L759K	with no effect
L759E	with no effect
K728A	with no effect
K728E	with no effect
A755K	with no effect
A755E	with no effect
S777E	with no effect
S777K	with no effect
S777A	with no effect
S729E	with no effect
S729A	with no effect
S729K	with no effect
L740A	with no effect
L740E	with no effect
L740K	with no effect

Variants of: B1
Details: with bbs2_human BBS2, Q9BXC9
Remark: another data set of the same source

Variant	effect of a mutation on the interaction
W741A	with no effect
